Measurements published in the nanobody polyreactivity screen of Harvey et al. (2022).

Assay: yeast display, Sf9 membrane polyspecificity reagent, FACS + sequencing; frameworks hold sequencing errors
In short: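 Galactose induction of a Saccharomyces cerevisiae BJ5465 synthetic nanobody display library ran 36–48 hours. The cells were then stained for 1 hour at 4 °C with 10% biotinylated, detergent-solubilized Sf9 membrane reagent, pulled down on streptavidin microbeads and FACS-sorted into low and high (top ~1%) gates on expression and reagent-binding fluorescence. Labels for polyreactivity follow the gate of origin.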

| Sequence | polyreactivity (PSR sort gate) |
| --- | --- |
| QGQLVESGGGLVQAGGSLRLSCAASGITFPGYAMGWSRQAPGKERELVAVIRKSGTSTYYADSVKGRFTISRDNEKNTVYLQMNSLKPEDTAVYYCADGGPSTVDVYWGQGTQVTVSS | low polyreactivity |
| QGQLVESGGGLVQAGGSLRLSCAASGITFPYYAMGWYRQAPGKERELVADITSGGSTNYADSVKGRFTISRDNAKNTVYLQMNSLKPDDTAVYYCAADWYVIYDYWGQGTQVTVSS | low polyreactivity |
| QGQLVESGGGLVQAGGSLRLSCAASGRIFKYNAMGWYRQAPGKEMELVAVITSGGSTYYADSVKGRFTISRDNAKNTVYLQMNSLKPEDTAVYYCAKKYYIVHKFDYWGQGTQVTVSS | low polyreactivity |
| QGQLVESGGGLVQAGGSLRLSCAASGRIFPYAMGWYRQAPGKERELVAAISRIGGITYYADSVKGRFTISRDNAKNTVYLQMNSLKPEDTAVYYCNARFHPYRWTFDYWGQGTQVTVSS | high polyreactivity |
| QGQLVESGGGLVQAGGSLRLSCAASGRIFQMYTMGWYRQAPGKERELDAAITSGTSTSYADSVKGRFTISRDNAKNPFYLQMNSLKPEDTAVYYCNKGSVCYSSVFVPYESDYWGQGTQVTVSS | low polyreactivity |
| QGQLVESGGGLVQAGGSLRLSCAASGRIFYIYFMGWYRQAPGKEREFVAAISQSGGSTYYADSVKGRFTISRDNAKNTVYLQMNSLKPEDTAVYYCAADRINYQHGYGYWGHGTQVTVSS | low polyreactivity |
| QGQLVESGGGLVQAGGSLRLSCAASGRTFQYYAMGWYRQATGKERELVAAITTVGSTKYADSVKGRFTISRDNAKNTVYLQMNSVKPEDTAVYYCAAGYRTRSGHRVPYSDYSWGQGTQVTVSS | high polyreactivity |
| QGQLVESGGGLVQAGGSLRLSCAASGRTFTINAMGWYRQATGKERELHAAISSDGNTNYADSVKGRFTISRDNAKNTVYLQMNSLKPEDTAVYYCAADWVRYSYRHGSYRVYYWGQGTQVTVSS | high polyreactivity |
| QGQLVESGGGLVQAGGSLRLSCAASGRTFYRYAMGWYRQAPGNERELVASMNRGGSTYYADSVKGRFTFSRDNAKNTVYLQMNSLKPEDTAVYYCACYCYCYRGQGTQVTVSS | low polyreactivity |
| QGQLVESGGGLVQAGGSLRLSCAASGRTLVIKVMGWYRKAPGKERELVAAISFRSGNTYYADSVKGRFTISRDNAKITVYLQMNSLKPEDTAVYDCAAYTYRTSTTSSYYNWGQGTQVTVSS | high polyreactivity |
| QGQLVESGGGLVQAGGSLRLSCAASGSIFDLNAMGWYRQAPGKERELVAAISTGGGTYYADSVKGRFTISRDTAKNTVYLQMNRLKPEDTAVYYCNRVTRWTYNYWGQGTQVTVSS | high polyreactivity |
| QGQLVESGGGLVQAGGSLRLSCAASGSIFGPYVMGWYRPAPGTERELVASITSSGGSTYYADSVKGRFTISRDNAKNTVYLQMNSLKPEDTAVYYCAATRSFSGGYGYVSYDYWGQGTQVTVSS | high polyreactivity |
| QGQLVESGGGLVQAGGSLRLSCAASGSIFRSYAMGWYRQAPGKERELVASISRRGGSTYYADSVKGRFTISRDNAKNTVYLQMNSLKPEDTAVYYCAAVRYNSRVSTSPSEMYYWGQGTQVTVSS | low polyreactivity |
| QGQLVESGGGLVQAGGSLRLSCAASGSISGNYAMAWYRQAPGKERELVASIRYTGARTYYADSVKWRFTISRDNAKNTVYLQMNSLKPEDTAVYYCAADVKRDRVWGGDYWGQGTQVTVSS | low polyreactivity |
| QGQLVESGGGLVQAGGSLRLSCAASGSISTYYAMGWYRQAPGKERELVAAISSSGVRTYYADSVKGRFTIARDNAKNTVYLQMNSLKREDTAVSYCAAEVYYLYFYIMDYWGQGTQVTVSS | high polyreactivity |
| QGQLVESGGGLVQAGGSLRLSCAASGSSLPYYAMGSYRQAPGKERELVATITDGTDTYYADSVKARFTISRDNAKNTVFLQMNSLKTDDSAVYYCNAYGYVYFLHEDYWGQGTQVTVSS | low polyreactivity |
| QGQLVESGGGLVQAGGSLRLSCAASGSTFLTNTMGWYRHAPGKERELVAAITLRGGRTYYADSVKGRFTISRDNAKNTVYVQMNSLKPEDTAVYYCTARNYYYTSDRDYWGQGTQVTVSS | low polyreactivity |
| QGQLVESGGGLVQAGGSLRLSCAASGSTLVYNDMGWYRQAPGKEREFVAAISISGTSTYADSVKGRFTISRDNAKNTVYLQMNSLKPEDTAVYWGQGTQVTVSS | low polyreactivity |
| QGQLVESGGGLVQAGGSLRLSCAASGTTFTKYAMGWYRPAPGKERELVATISQSSGRTYYADSVKRRFTISRDNAKNTVYLQMNTLKPEDTAVYYCAARYGYAVYYYGTPVRRYYYWGQGTQVTVSS | high polyreactivity |
| QGQLVESGGGLVQAGGSLRLSCAASVRTFYKYAMGWYRQAPGKERELVATITSGGSTNYADSVKGRFTISRDNAKNTVYLQMNSLKPEDTAVYYCAARGHIYKIRDPYWTHDYWGQGTQVTVSS | low polyreactivity |
| QGQLVESGGGLVQAGGSLRLTCPPSGFTFRTNAMGWYRQAPGKERELVAAISYSGGSTYYADSVKGRFTISRDNAKNTVYFQMNSLKPEDTAVSYCAARAAGSQHDYWGQGSQVTVSS | high polyreactivity |
| QGQLVESGGGLVQAGGSLSLSCAASGSIFQGYAMGWYRQAPGNEWEFVAAISESDGSTYYADSVKGRCTISRDNAKNTVYLQMNSLKPEDTAVYYCAADKQAYVTDDYWGQGTQVTVSS | high polyreactivity |

| Sequence | polyreactivity (PSR sort gate) |
| --- | --- |
| QGQLVESGGGLVQAGVSLRLSCAASGSIFGFYGMGWYRQAPGKERELVAAISYRGGNTYYADSVKGRFTSSRDNAKNTVFLQKNSLKPEDTAVYYCNSMWKHGAYRGAYGYWGQGTQVTVSS | high polyreactivity |
| QGQLVESGGGVVQAGGSLRLSCAASGRIFYRNAMGWYRQAPGKVRELVAAINWSGGSTYYADSVKGRFTISRDNAKNTVYLQMNSLKPEDTAVYYCAARFVRYPSKYDYWGQGTQVTVSS | high polyreactivity |
| QGQLVESWGGLVQAGGSHRLSCAASGRIFVYYAMGWYRQAPGKERELVAGMTGGGNTYYAYSVKVLFTISRDNAKNTGYLQKNSLKPEDTAVYYCAADPIRYRSRHKYGYWGQGTQVTVSS | low polyreactivity |
| QGQLVVSGGGLVQAGGSLRLSCAASGSILTRNAMGWYRQAPGKEMELVAAITGSGGRTYYADSVKGRFTISRDNAKKTFYLQMKSLKPEDTAVYYCATRYGREDYWGQGTQVNVSS | high polyreactivity |
| QGQRVESGGGLVQAGASLRLSCAASGFIFWEYAMGWSRQAPGKERELVAAISDSGGDTYYADSVKGRFTISRDNAKNTVYLEMHSLKPEDSAVYFCAADVELWVFRGQQYDYWGQGTQVTVSS | low polyreactivity |
| QGQRVESGGGLVQAGGSLRISCAASGRTVGRYVMGWYRQEPGKERELVARIRGSTTSTYYADSVKGRFTISRDNAKNTVYLQMNSLKAEDTAVYYCAASYSPFASSYSYDYWGQGTQVTVSS | high polyreactivity |
| QGQRVESGGGLVQAGGSLRLTCAPSGRTFTGYAMGWYRQATGKARELVAGINWSTGSTYYADSVKGRFTISRDNAKNTVYLQMNSLKPEDTAVYYCAAGYYYYGNGRIVQYEYWGQGTQVTVSS | high polyreactivity |
| QHQHVESGGGLDQAGGSLRLSCAASGSTFQIYAMGWYRQAPGKERELVAAIDFSGGSTYYADSVKGRFTISRDNAKYTVYLQMNSLKQEDTAVYYCAADLALYSHFGEYEYWGQGTQVTVSS | low polyreactivity |
| QHQLVESGGGLVQAGGSLRLSCAASGRTFHRNAKGWYRQAPWQERELVAAITGSGGSTYYADSVKGRFTISRDNAKNTVYLQMYSLKPEDTAVYYCATYSYPERTGGQRTHYYWGQGTQVTVSS | high polyreactivity |
| QIQLVESGGGFVQAGGSLRLSCAASGFTFHYYAMGWYSQAPGKERELGAAISWSSGRTYYADSVKGRFTISRDNAQNTVYLQMNSLKPEDTAVYSCAASSYNRGDYWGQGTQVTVSS | low polyreactivity |
| QLHLVESGGGLVQAGGSLRLSCAASGLTFDQYAMGWYRQAPGKERELVAAISGSDSTYYADSVKGRFTISRDNAKNTVYLQMNSLKPEDTAVYYCAASGDYVNIITGERFDARLYDYWGQGTQVTVSS | low polyreactivity |
| QLHLVESGGGLVQAGGSLRLSCAASVSIFNIYAMGWYRQAPGKERELVATITGIADSTYYADSVKGRFTISRDNAKNTVYLQMNSLKPEDTAVYYCAADKYVAEYDYWGQGTQVTVSS | low polyreactivity |
| QLKLVESGGGLVQAGASLRLSCAASGSIFYGYTMGWYRQAPGKERELVAGISTYYADSVKGRFTISRDNAKNTVYLQMNSLKPEDTEVYYCAADYSSTTSEYDYWGQGTQVTVSS | low polyreactivity |
| QLQHVESGGCLDQAGGSLRLSCAASGGIIPYRGWYRQAPGKQRELVASITSSGGSTYYADSVKGRFTISRDNAKNTVYLQMNSLKPEDTAVFYCAADPDFYKSVQYDYWGQGTQVTVSS | low polyreactivity |
| QLQHVESGGGLVQAGGRLRLSCAASGFTFYYYAMGWYRPEPGKERELVAAISSTGGSTYYADSVKGRFTISRDNAKNTVYLQMNSMKPEDTAVYYCNAACYRYPGDYDYWGQGTQVTVSS | high polyreactivity |
| QLQIVESGGGLVQAGGSLRLSCAASGRIFSYNAMGWYIQAPGKARELVAAITFSGGGTYYADSVKGRFTISRDNAKNTVYLQMNSLNPEYTAVYYCNKVSYGYSTYGYWGQCTQVTVSS | low polyreactivity |
| QLQIVESGGGLVQAGGSLRLSCAASGSTFSYNAMGWYRQAPRKQRELVASISTSGGSTYYADSVKGRFTISRDNANNTVYLEMNSLKPEDTAVYYCNAPTSDIYSDFDSWGQGTQVTVSS | low polyreactivity |
| QLQLAESGGGLVQAGGSLRLSCAASGSTFEINAMGWYRQAPWKERELVAAISKRGGNTYYADSVKGRFTISRDNAKNTVYLQMNSLKPEVTAVYYCSADSDSHYFFYVRWVGERYEYWGQGTQVTVSS | high polyreactivity |
| QLQLEESAGGLVQAGGSLRLSCAASGSIFSDNAMGWYRQAPGKERELVASINSGGSTNYADSVKGRFTISRDNAKNTVYLQMNSLKPEYTAVYYFNKEDEVVYPGYPNGGMDYWGQGTQVTVSS | low polyreactivity |
| QLQLEESGGGLVQAGGSLRLSCAASGRTFRYYSMGWYRHAPGKEREMVAAISSSGDRTYYADSVKGRFTISRDNATNTVYIQMNSLKPEDTAVYYCANVPYYSRPHDYWGQGTQVTVSS | high polyreactivity |
| QLQLEESGGGLVQAGGSLRLSCAASGSIFDDYAMGWYRQAPGKERELVAAITSGGSTYYADSVKGRFTISRDNAKNTVYLQLNRLKPEDTAVYYRATRYHWSSSFAPVGAYGYWGQGTQVTVSS | low polyreactivity |
